± gives the half width of the 95% confidence interval.
Assays:
[1] = folding stability dG unfold from trypsin proteolysis; higher = more stable
Outline: (§1)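 Unfolding free energy was derived, per protease or combined, by relating Bayesian-fitted K50 values from sequencing counts to a sequence-predicted unfolded-state K50 and a shared folded-state K50. The underlying digests exposed cysteine-free mini-proteins under 80 residues, in a PA-tagged cDNA display construct, to trypsin and chymotrypsin at 11 threefold-diluted concentrations and to a no-protease condition. A filter kept only designs with AlphaFold2 dimer inter-PAE above 15.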

[2] = folding stability dG unfold (combined trypsin and chymotrypsin); higher = more stable
Outline: as §1

[3] = folding stability dG unfold from chymotrypsin proteolysis; higher = more stable
Outline: as §1

## SAEKPPVVTLEIEIEIVVKDENGKTHKRKFRLTVTFYPDGTVEISIYDENGELIETITLPPGATLEELLSAG [r14_559_TrROS_Hall]
[1]
  folding stability dG unfold: 2.26 ± 0.083 kcal/mol
[2]
  folding stability dG unfold: 3.61 ± 0.11 kcal/mol
[3]
  folding stability dG unfold: 3.99 ± 0.15 kcal/mol

## SAELLEELLKKAREEAEKEGKKVEIHLVLVVEKDENGKVTFTEEEKELIKKLKEAFPDVEIKIEVVELPSAG [r14_636_TrROS_Hall]
[1]
  folding stability dG unfold: 2.83 ± 0.18 kcal/mol
[2]
  folding stability dG unfold: 3.28 ± 0.13 kcal/mol
[3]
  folding stability dG unfold: 3.45 ± 0.16 kcal/mol

## SAELPPGMRLVIDDIEPMRNNGKPMLMIKLSIYDPAKPGKEITHWTIMVTNDNIMAIQPTTYRIPPDDISAG [r14_651_TrROS]
[1]
  folding stability dG unfold: 2.64 ± 0.075 kcal/mol
[2]
  folding stability dG unfold: 2.57 ± 0.22 kcal/mol
[3]
  folding stability dG unfold: 2.63 ± 0.12 kcal/mol

## SAEMTEEERARRLAEKLREELEELGVEKVEIEFDEEERRVTVRVTLSPEVREKLAERLGLSREELDALLSAG [r14_688_TrROS_Hall]
[1]
  folding stability dG unfold: 4.1 ± 0.1 kcal/mol
[2]
  folding stability dG unfold: 3.43 ± 0.079 kcal/mol
[3]
  folding stability dG unfold: 2.914 ± 0.023 kcal/mol

## SAEPITITWPNGMQIPLYKDDDGEIEIKIQMYDPKDGKPVGEQEQRIDPDDNTIEFRFPNGWPFSITIPDSA [r9_56_TrROS]
[1]
  folding stability dG unfold: 0.835 ± 0.11 kcal/mol
[2]
  folding stability dG unfold: 0.473 ± 0.22 kcal/mol
[3]
  folding stability dG unfold: 0.0536 ± 0.57 kcal/mol

## SAERTPVREADIPIPGLPVVVRVRTYAEAVELARKSGVPVVVETVEVEVFLPDGSRVRFPAPGLLVLDGSAG [r14_100_TrMRF]
[1]
  folding stability dG unfold: 1.41 ± 0.0081 kcal/mol
[2]
  folding stability dG unfold: 1.5 ± 0.036 kcal/mol
[3]
  folding stability dG unfold: 1.55 ± 0.055 kcal/mol

## SAETVTFRVGDVEIVARRLPDGYVVVTEKVPEEYPEAELVLSLVRVYPDGTVEVESRLYRIDPETGVIGSAG [r14_724_TrMRF]
[1]
  folding stability dG unfold: 2.12 ± 0.049 kcal/mol
[2]
  folding stability dG unfold: 2.48 ± 0.17 kcal/mol
[3]
  folding stability dG unfold: 2.67 ± 0.053 kcal/mol

## SAEVELKPDEELEFEFPDSQVKISYVPGTGVITTTTTFTTPDGTVVYKTTTIKKEGKEVTSTTVSLAEASSA [r9_881_JUSTAS]
[1]
  folding stability dG unfold: 0.389 ± 0.054 kcal/mol
[2]
  folding stability dG unfold: 1.17 ± 0.12 kcal/mol
[3]
  folding stability dG unfold: 1.52 ± 0.067 kcal/mol

## SAEVRPDEVLRIEVRLRVGDVEFTAEAEIPAGLSEEEIREAVERIREEAERLAERLRRLPPLRPPEELLSAG [r14_70_TrMRF]
[1]
  folding stability dG unfold: 1.63 ± 0.086 kcal/mol
[2]
  folding stability dG unfold: 2.64 ± 0.43 kcal/mol
[3]
  folding stability dG unfold: 2.96 ± 0.14 kcal/mol

## SAEVRTVTDANGTQRTVTKTPDGTETVTTRPVPAPPPPPTVTVEVEYDAENGTLTVRLPDGSKLEFTFEDSA [r9_56_TrROS_Hall]
[1]
  folding stability dG unfold: -0.118 ± 0.23 kcal/mol
[2]
  folding stability dG unfold: 0.742 ± 0.26 kcal/mol
[3]
  folding stability dG unfold: 0.982 ± 0.046 kcal/mol

## SAEVRVEIVEVDEERGVIRIEITVPEDLPEEEILEELARRLEELARERGYEVRIERREDGTYRIEIRFPSAG [r14_865_TrROS_Hall]
[1]
  folding stability dG unfold: 4.18 ± 0.16 kcal/mol
[2]
  folding stability dG unfold: 4.25 ± 0.11 kcal/mol
[3]
  folding stability dG unfold: 4.26 ± 0.071 kcal/mol

## SAEVVIVIEPGMTEEQVRARLKAALEEALRKGKKVKKIVVKSEEAARRIRDLLKELGVPEEDVEVVLLPSAG [r14_589_TrROS_Hall]
[1]
  folding stability dG unfold: 4.92 ± 0.51 kcal/mol
[2]
  folding stability dG unfold: 4.93 ± 0.36 kcal/mol
[3]
  folding stability dG unfold: 3.45 ± 0.17 kcal/mol

## SAEYTPVGPNEDAEVWEVPNLGKLFTIDPKDDVVEITEVHFDDGDLSPHPHTVRVDVPEEDRDRLRDLLSAG [r14_245_TrMRF]
[1]
  folding stability dG unfold: 0.0643 ± 0.06 kcal/mol
[2]
  folding stability dG unfold: -0.213 ± 0.14 kcal/mol
[3]
  folding stability dG unfold: -1.11 ± 0.58 kcal/mol

## SAGAEVEVVELTDEEIEALAKELNPDVTIEVVVVRVPPPPEKVEVRDPETGETVTLTVTPDGEIRAEKSAGG [r19_70_TrROS_Hall]
[1]
  folding stability dG unfold: 0.624 ± 0.091 kcal/mol
[2]
  folding stability dG unfold: 0.0774 ± 0.35 kcal/mol
[3]
  folding stability dG unfold: -0.235 ± 0.16 kcal/mol

## SAGAKVEIEFEGNKVTAKIEFGEGTVTVEGEVKLLPDGSALFKPKIYKDGKKIGEFTVLLDLPEGAEVLSAG [r5_221_TrMRF]
[1]
  folding stability dG unfold: 1.37 ± 0.062 kcal/mol
[2]
  folding stability dG unfold: 1.84 ± 0.16 kcal/mol
[3]
  folding stability dG unfold: 1.95 ± 0.057 kcal/mol

## SAGAMLTLELTVEADSPEEAIERAKEIAKELIKKEYPELSKNTKIEKITAEPTPGPEVKVTITIKIDPGSAG [r5_320_JUSTAS]
[1]
  folding stability dG unfold: 4.42 ± 0.17 kcal/mol
[2]
  folding stability dG unfold: 4.32 ± 0.22 kcal/mol
[3]
  folding stability dG unfold: 3.61 ± 0.18 kcal/mol

## SAGAMPPVVEVAPVEGEGLLRVTVPVPTSDVVRVTVDLGDRRLEYTLPRDASLEVSTADAEVRVAVELVSAG [r14_96_JUSTAS]
[1]
  folding stability dG unfold: 0.5 ± 0.031 kcal/mol
[2]
  folding stability dG unfold: 0.638 ± 0.056 kcal/mol
[3]
  folding stability dG unfold: 0.639 ± 0.1 kcal/mol

## SAGAMVTHTITVKIDPSELDKLEEILEKIKNSGPVKAIEPVSFEPGTGVYTVKVTADPATIKLVEEALKSAG [r5_193_JUSTAS]
[1]
  folding stability dG unfold: 4.51 ± 0.28 kcal/mol
[2]
  folding stability dG unfold: 4.24 ± 0.069 kcal/mol
[3]
  folding stability dG unfold: 4.14 ± 0.062 kcal/mol

— the supplement of paper PMC12764529
